Data as given in publication PMC5603731, “The SET1 Complex Selects Actively Transcribed Target Genes via Multivalent Interaction with CpG Island Chromatin” (Cell Reports, 2017).
No end group written: not given here.

Key:
mouse C127 cells = test: FRAP, nuclear mobility of GFP fusion proteins; format: cell-based; conditions: compared to wild-type GFP-CFP1
Experimental: FRAP experiments were performed on an UltraView spinning disk microscope (Perkin Elmer) equipped with an EM-CCD camera (Hamamatsu) using a 60x/1.4NA oil objective. 50 pre-bleach and 1,000 post-bleach images were captured at a rate of 8 frames per second (fps) (Figures 1B and C) after bleaching a circular diffraction limited spot of ∼2.5 μm diameter using a 488-nm laser line at 100% transmission. Alternatively, to capture the rapid recovery of the P/C/S^∗ mutant effectively, we used an acquisition rate of 13 fps (Figures 1E and F). FRAP curves were calculated in MATLAB, normalizing for the initial conditions (brightness of the cell and brightness of the spot) and corrected for acquisition photobleaching over time ([Mueller et al., 2012]). Half recovery times (t1/2) were calculated using a biexponential fit. Briefly, this involved deriving t1/2 values from individual cells (Figures S1F and S1G) and then collecting the distribution of t1/2 values across biological triplicates for the same transgene (Figures S1H and S1I). To compare the dynamics of individual GFP-CFP1 transgenes, a Student’s t test was then used to calculate the probability (p) that there was no difference between the wild-type and mutant versions of CFP1.
Supplementary Experimental Procedures: […]
Fluorescence recovery after photobleaching (FRAP) […]

CFP1 PHD domain [1] = test: other fluorescence titration; intrinsic fluorescence of the CFP1 PHD finger, excitation 280 nm, emission 320-380 nm; increasing concentrations of histone peptide; 20 mM Tris-HCl pH 6.8, 100 mM NaCl, 2.5 mM DTT; 25°C
CFP1 PHD domain [2] = test: NMR titration; 1H,15N HSQC of 0.1-0.2 mM uniformly 15N-labelled CFP1 PHD finger; histone tail peptides added stepwise; 20 mM Tris-HCl pH 6.8, 100 mM NaCl, 2.5 mM DTT, 7% D2O; 298 K

Molecule	Kd (CFP1 PHD domain [1])	other results
GFP-SET1A: GFP-tagged wild-type SET1A		Nuclear mobility (FRAP) (mouse C127 cells): slightly less mobile than GFP-CFP1
ARTK(trimethyl)QTARKSTG [H3K4me3 peptide]	1.3 µM	
ARTK(dimethyl)QTARKSTG [H3K4me2 peptide]	9.1 µM	
ARTK(Me)QTARKSTG [H3K4me1 peptide]	64 µM	
ARTKQTARKSTG (here or on the partner: zinc-bound PHD finger; 15N-labelled for NMR. Construct limits are not in the text shown, so the UniProt PHD-type zinc finger limits are used; human is inferred from the NP_001095124.1 alignment and th) [unmodified H3K4me0 peptide]		Kd (CFP1 PHD domain [2]): 373 µM
